Experimental findings from publication PMC9891371 are described below.

The target of test [1] is ZE-fused ferritin, C-terminal fusion (HF-ZE) cage (human). Briefly: TEM + native gel or EMSA. Background: A gel shift assay detects complexes by their altered migration in electrophoresis.
Test [2] concerns the target ZE-fused ferritin, N-terminal fusion (ZE-HF) cage (human). In words: TEM.
For test [3], the target named is ZE-mi3 cage (His tag and ZE fused to the N-terminus of the designed protein cage mi3). In words: TEM.
Test [4] shares this target. In words: native gel or EMSA.
Test [5] addresses C-terminal ZR-fused ferritin (HF-ZR) cage, 15 residue linker (human). In words: negative-stain TEM.
Test [6] concerns the target ZE-fused ferritin, N-terminal fusion (ZE-HF) cage (human). In words: native gel or EMSA.

Values joined by “and” are separate entries in the source; they are usually repeats but may differ in a detail not shown here. Equal entries are not always repeated.

Regarding “C-terminal ZR-fused ferritin (HF-ZR) cage, 15 residue linker (designed binder)”, the stoichiometry N (HF-ZR cages per HF-ZE cage) in test [1] is 1 and 3. For the same substance, in test [2], the stoichiometry N (HF-ZR cages per ZE-HF cage) is 4 and 6. The substance further yielded a stoichiometry N (HF-ZR cages per mi3 cage) in test [3] of 12. The stoichiometry N (HF-ZR cages per ZE-mi3 cage) in test [4] was determined as 12.
Turning to ZE-GFP (ZE-fused GFP) (designed binder), the stoichiometry N (GFPs observed per cage) in test [5] is 1 and 3.
“GFP-ZR (ZR fusion to the GFP C-terminus) (designed binder)” had a stoichiometry N (GFPs per ferritin cage) in test [6] of 20 to 24.
